The assay concerns the target mitogen-activated protein kinase p38α (residues 2-349) (human, UniProt Q16539 2-349). Kind of assay: ITC. On the technique in general: ITC needs no label: the signal is the heat of the interaction.

mitogen-activated protein kinase p38α (residues 2-349), sequence (Q16539 2-349): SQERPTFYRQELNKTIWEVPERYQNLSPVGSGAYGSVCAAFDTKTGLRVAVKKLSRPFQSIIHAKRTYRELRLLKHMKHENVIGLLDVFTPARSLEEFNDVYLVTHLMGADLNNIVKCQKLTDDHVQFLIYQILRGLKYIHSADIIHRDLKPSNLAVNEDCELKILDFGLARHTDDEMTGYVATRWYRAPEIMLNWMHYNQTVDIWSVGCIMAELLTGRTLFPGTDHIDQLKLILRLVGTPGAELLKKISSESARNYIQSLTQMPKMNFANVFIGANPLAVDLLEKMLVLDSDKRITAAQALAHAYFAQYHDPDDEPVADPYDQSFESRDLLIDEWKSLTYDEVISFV

Turning to SQSKGKKRNPGLKIPKEAF [MKK6KIM peptide], binding was put at a Kd of 7 ± 2 µM.

B1: full-length MKK6 (residues 1-334) (enzyme, UniProt P52564 1-334, looked up)
chain: MSQSKGKKRNPGLKIPKEAFEQPQTSSTPPRDLDSKACISIGNQNFEVKADDLEPIMELGRGAYGVVEKMRHVPSGQIMAVKRIRATVNSQEQKRLLMDLDISMRTVDCPFTVTFYGALFREGDVWICMELMDTSLDKFYKQVIDKGQTIPEDILGKIAVSIVKALEHLHSKLSVIHRDVKPSNVLINALGQVKMCDFGISGYLVDSVAKTIDAGCKPYMAPERINPELNQKGYSVKSDIWSLGITMIELAILRFPYDSWGTPFQQLKQVVEEPSPQLPADKFSAEFVDFTSQCLKKNSKERPTYPELMQHPFFTLHESKGTDVASFVKLILGD
Consider B1, for which the Kd – broadly, the concentration at which binding is half-saturated – is 2 ± 0.1 µM.

B2: constitutively active MKK6 variant MKK6_(1-334)^S207ET211E (enzyme, UniProt P52564 1-334, looked up)
chain: MSQSKGKKRNPGLKIPKEAFEQPQTSSTPPRDLDSKACISIGNQNFEVKADDLEPIMELGRGAYGVVEKMRHVPSGQIMAVKRIRATVNSQEQKRLLMDLDISMRTVDCPFTVTFYGALFREGDVWICMELMDTSLDKFYKQVIDKGQTIPEDILGKIAVSIVKALEHLHSKLSVIHRDVKPSNVLINALGQVKMCDFGISGYLVDEVAKEIDAGCKPYMAPERINPELNQKGYSVKSDIWSLGITMIELAILRFPYDSWGTPFQQLKQVVEEPSPQLPADKFSAEFVDFTSQCLKKNSKERPTYPELMQHPFFTLHESKGTDVASFVKLILGD
Take B2: the Kd is 3.5 ± 1.4 µM.
